Source: CN111196852A (SICHUAN KELUN BOTAI BIOMEDICAL CO LTD; ANYUAN MEDICINE TECH …, dated 2020)

Experiments:
[1] = biological target: T1, 人TIGIT (human, UniProt Q495A1 22-141, limits assumed); experiment: ELISA, human TIGIT coated, HRP goat anti-mouse IgG
T1 construct: also called 人TIGIT抗原
T1 sequence (looked up): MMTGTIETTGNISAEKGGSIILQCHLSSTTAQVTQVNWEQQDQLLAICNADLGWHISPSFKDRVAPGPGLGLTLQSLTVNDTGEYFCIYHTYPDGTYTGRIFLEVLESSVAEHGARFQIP

[2] = biological target: T2, 人TIGIT-His (human, UniProt Q495A1 22-141, limits assumed); experiment: BLI (ForteBio Octet QK), Human TIGIT(His tag) on Ni-NTA sensor, antibody 3.125-100 nM; order of magnitude only
T2 construct: Loaded on Ni-NTA sensors in the BLI runs; also called Human TIGIT(His tag); not shown: His tag
T2 sequence (looked up): T1 sequence (looked up)

B1: 鼠单克隆抗体Mab21 (antibody, mouse IgG2b, V domains shown)
VH: EVQLQQSGAELVKPGASVRLSCTASGFNIKDTYINWVKQRPEQGLEWIGRIDPANGDTKYAPKFQGKATITTDTSSNTAYLQLSSLTSEDTAVYYCPKSGDYGWYFDVWGAGTTVTVSS
VL: DIVLTQSPASLSVTPGDSVSLSCRASQSISNNLHWYQQKSHESPRLLIKYASQSISGIPSRFSGSGSGTYFTLSINSVETEDFGMYFCQQSNSWLTFGAGTKLELKR
notes: Mouse IgG2b (Kappa), purified from hybridoma #21 on protein G; also called 杂交瘤细胞株#21
For B1, the EC50 [1] was about 0.018 nM and the Kd [2] was about 0.01 nM.

B2: 鼠单克隆抗体Mab7 (antibody, mouse IgG1, V domains shown)
VH: QVQLQQSGAELVSPGTSVKVSCKASGYAFTNYLIEWIYQRPGQGLEWIGVINPGSGGTIYNEKFKGKATLTADKSSNIAYLQLSSLTSDDSAVYFCAGSYGSSYTFDYWGQGTTLTVSS
VL: DIVMTQSHKFLSTSVGDSVSITCKASQHVSTAVVWYQQKPGQSPKLLIYSPSYRYTGVPDRFTGSGSGTDFTFTISSVQAEDLAVYYCHQHYSTPWTFGGGTKLEIKR
notes: Mouse IgG1 (Kappa), purified from hybridoma #7 on protein G; also called 杂交瘤细胞株#7
B2 gave an EC50 [1] of about 0.018 nM and a Kd [2] of about 0.001 nM.
